Assay results taken from publication PMC8979947.
One block for each molecule: values may come before it.

Key:
talin R3-IVVI domain [1] = molecular target: talin R3-IVVI domain
talin R3-IVVI domain [2] = molecular target: talin R3-IVVI domain; remark: listed apart in the source
talin R3-IVVI domain [3] = molecular target: talin R3-IVVI domain; remark: listed apart in the source
talin R3-IVVI domain [4] = molecular target: talin R3-IVVI domain; remark: listed apart in the source

Molecule: DnaK (from UniProt P0A6Y8 1-638) (natural protein)
- intersection force (equal unfolding and refolding rates) of R3-IVVI, force-clamp chevron plot, with 3 µM apo-DnaK; control 9.7 pN (talin R3-IVVI domain [1]): 6 pN
- unfolding force (confirmed as intersection force of the chevron plot) of R3-IVVI with DnaK + DnaJ + ADP (DnaKJ-ADP) (talin R3-IVVI domain [2]): 6.3 pN
- unfolding force (confirmed as intersection force of the chevron plot) of R3-IVVI with DnaK and ATP; ~6 pN with apo-DnaK (talin R3-IVVI domain [2]): 7.6 pN

Molecule: Hsp70, human recombinant protein (from UniProt P0DMV8 1-641) (natural protein)
- intersection force of R3-IVVI, chevron plot, with Hsp70; control 9.7 pN (talin R3-IVVI domain [3]): 7.2 pN
- half-point force of R3-IVVI with Hsp70 (talin R3-IVVI domain [4]): 7.2 pN
- half-point force of R3-IVVI with Hsp70 and its inhibitor pifithrin-µ (PFT-µ, binds the substrate-binding domain of Hsp70) (talin R3-IVVI domain [4]): 9.5 pN

B1: oxidized DsbA (enzyme)
chain: AQYEDGKQYTTLEKPVAGAPQVLEFFSFFCPHCYQFEEVLHISDNVKKKLPEGVKMTKYHVNFMGGDLGKDLTQAWAVAMALGVEDKVTVPLFEGVQKTQTIRSASDIRDVFINAGIKGEEYDAAWNSFVVKSLVAQQEKAAADVQLRGVPAMFVNGKYQLNPQGMDTSNMDVFVQQYADTVKYLSEKK
modifications: oxidized (0.3% H2O2 overnight)
- intersection force (equal unfolding and refolding rates) of R3-IVVI, force-clamp chevron plot, with 60 µM DsbA; control 9.7 pN (talin R3-IVVI domain [1]): 14.9 pN

The remaining lines, values ahead:

- intersection force (equal unfolding and refolding rates) of R3-IVVI, force-clamp chevron plot, with 1 µM DnaJ; control 9.7 pN (talin R3-IVVI domain [1]): 7.9 pN
Molecule: DnaJ (from UniProt P08622 1-376) (natural protein)

- intersection force of R3-IVVI, chevron plot, with Hsp40; control 9.7 pN (talin R3-IVVI domain [3]): 7.8 pN
Molecule: Hsp40, human recombinant protein (from UniProt P25685 1-340) (natural protein)
